One variant from IntAct's records for PubMed 22309289 can be followed below.

The chains are these.
B1: Protein X (Hepatitis B virus genotype D subtype ayw (isolate France/Tiollais/1979)), P03165 (parent)
chain: MAARLCCQLDPARDVLCLRPVGAESRGRPFSGSLGTLSSPSPSAVPTDHGAHLSLRGLPVCAFSSAGPCALRFTSARRMETTVNAHQILPKVLHKRTLGLSAMSTTDLEAYFKDCLFKDWEELGEEIRLKVFVLGGCRHKLVCAPAPCNFFTSA

In this test the parent is B1. The following applies: with akt1_human AKT1, P31749.
akt1_human AKT1, P31749, sequence (P31749 whole entry): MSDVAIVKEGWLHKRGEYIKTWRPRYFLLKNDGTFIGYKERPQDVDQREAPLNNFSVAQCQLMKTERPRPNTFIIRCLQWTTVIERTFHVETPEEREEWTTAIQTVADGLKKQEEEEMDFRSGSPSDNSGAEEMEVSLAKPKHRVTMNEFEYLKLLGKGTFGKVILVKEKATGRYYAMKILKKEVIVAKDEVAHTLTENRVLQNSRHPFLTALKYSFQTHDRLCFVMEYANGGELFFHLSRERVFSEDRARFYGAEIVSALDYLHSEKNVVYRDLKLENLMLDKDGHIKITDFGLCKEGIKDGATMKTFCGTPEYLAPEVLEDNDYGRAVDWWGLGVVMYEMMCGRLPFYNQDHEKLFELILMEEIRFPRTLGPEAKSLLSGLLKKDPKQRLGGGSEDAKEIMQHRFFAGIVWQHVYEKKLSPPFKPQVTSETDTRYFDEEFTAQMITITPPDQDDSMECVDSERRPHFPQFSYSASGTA
For the variant S31A, the “effect of a mutation on the interaction” value was “disrupting interaction”.
